One series concerns the target T1, spCC2-LZ (murine).
T1 construct: also called MOD; minimal oligomerization domain of NEMO
T1 chain: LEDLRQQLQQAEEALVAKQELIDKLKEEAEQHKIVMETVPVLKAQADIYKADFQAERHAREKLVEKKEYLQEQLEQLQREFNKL
The series can be described thus: fluorescence anisotropy, 10 µM labelled peptide titrated with spCC2-LZ. The text has this:
The concentration of spCC2-LZ was determining by amino acid analysis (Vinolo et al; 2006).

The target in series [1] is NEMO (endogenous, in 70Z/3-C3 cells) (UniProt O88522 1-412, limits assumed). The series can be described thus: cell-based or functional assay.
Series [2] concerns the molecule itself. The series can be described thus: circular dichroism and gel filtration (data not shown).

Where no end group is shown, it is not given here. Bodipy = not defined here

NEMO (endogenous, in 70Z/3-C3 cells), sequence (O88522 whole entry): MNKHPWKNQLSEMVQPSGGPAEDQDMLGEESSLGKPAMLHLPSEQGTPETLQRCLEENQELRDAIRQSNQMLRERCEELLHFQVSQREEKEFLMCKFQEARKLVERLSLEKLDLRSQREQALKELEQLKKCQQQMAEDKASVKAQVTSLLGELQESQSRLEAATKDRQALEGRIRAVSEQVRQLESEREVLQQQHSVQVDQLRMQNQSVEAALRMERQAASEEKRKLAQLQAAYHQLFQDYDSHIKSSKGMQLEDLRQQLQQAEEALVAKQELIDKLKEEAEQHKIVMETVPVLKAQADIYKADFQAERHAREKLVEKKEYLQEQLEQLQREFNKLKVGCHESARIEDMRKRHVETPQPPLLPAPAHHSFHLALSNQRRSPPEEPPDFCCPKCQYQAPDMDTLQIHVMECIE

B1: BR7-DR NLM (peptide)
peptide: C(Bodipy)RRRRRRRLKAQADIYKARFQAERHAREK
modifications: reading uncertain
notes: also called DR NLM fused to the poly R7 peptide
B1: the affinity with spCC2-LZ, expressed as Kd, was 21 µM.

B2: BA-DR NLM (peptide)
peptide: C(Bodipy)RQIKIWFQNRRMKWKKLKAQADIYKARFQAERHAREK
modifications: reading uncertain
notes: also called BA-NLM-DR; DR NLM fused to its N-terminus with the antennapedia peptide
B2: the Kd with spCC2-LZ is 17 µM. Also, the “IC50 of NF-κB activity (β-galactosidase reporter in 70Z/3-C3 cells after PMA, IL-1 or LPS)” value in series [1] stood at 0.9 µM.

B3: DR NLM (peptide)
peptide: LKAQADIYKARFQAERHAREK
notes: also called tag-free DR NLM; NLM-DR
For B3, the binding result in series [2] is given as “no binding (tested: up to 100 µM)”.

B4: NLM (peptide)
peptide: LKAQADIYKADFQAERHAREK
notes: also called tag-free NLM; NLM peptide of NEMO
As for B4, in series [2], the binding result is recorded as “no binding (tested: up to 100 µM)”.

These data come from patent publication US20100240040A1 (INSTITUT PASTEUR, published 2010).
